Measured values taken from patent US11141462B2, “Method for the treatment or prevention of osteoarthritis” (Chondropeptix B.V., priority 2016, dated 2021).

Key:
OA patients = conditions: phase-1 clinical trial in OA patients; intra-articular injection; cited from earlier work
[1] = system: Hoffa's fat pad tissue samples from OA patients; test: PGE2 ELISA, Hoffa's fat pad tissue samples; assay type: cell-based, human; conditions: 1 nM, 24 h
Method: Hoffa's fat pad tissue samples from OA patients (n=6) were treated with BMP-7 (1 nM) with peptide […] (SEQ ID NO: 13) at 10 nM or a scrambled irrelevant control peptide (10 nM) for 24 h. PGE2 levels were determined via an ELISA.

[2] = system: IL-1β-exposed chondrocytes; conditions: cited from earlier work
[3] = system: cartilage explants from OA patient's knee articular cartilage; test: Treatment of cartilage explants, hypertrophic gene expression by qRT-PCR; assay type: cell-based, human; conditions: 1 nM, 24 h
Method: 4 mm 2 cartilage explants were taken from non-lesion areas of OA patient's knee articular cartilage (n=5) and randomly assigned to different experimental treatment conditions (4 explants per treatment group). After a 24 h equilibration period the explants were treated with BMP-7 (1 nM) or the 12-mer peptide according to SEQ ID NO: 43 (10 nM) for 24 h. Hypertrophic gene expression was determined via qRT-PCR and normalized for 28S rRNA levels. After treatment with BMP-7 or the 12 mer we observed a downregulation of pro-hypertrophic genes, such as Col10a1 (FIG. 9A) and MMP13 (FIG. 9B).

[4] = system: Meniscus tissue samples from OA patients; test: PGE2 ELISA, meniscus tissue samples; assay type: cell-based, human; conditions: 1 nM, 24 h
Method: Meniscus tissue samples from OA patients (n=6) were treated with BMP-7 (1 nM) with peptide peptide […] (SEQ ID NO: 13) at 10 nM or a scrambled irrelevant control peptide (10 nM) for 24 h. PGE2 levels were determined via an ELISA.

[5] = system: Isolated chondrocytes from OA patients; test: Treatment of isolated chondrocytes from OA patients, gene expression by qRT-PCR; assay type: cell-based, human; conditions: 1 nM, 24 h; qRT-PCR normalized for 28S rRNA; n=6
Method: Isolated chondrocytes from OA patients (n=6) were treated with BMP-7 (1 nM) or the 12-mer peptide according to SEQ ID NO: 43 (1 nM) for 24 h. Pro-chondrogenic (FIG. 8A) and hypertrophic (FIGS. 8B, 8C and 8D) gene expression was determined via qRT-PCR and normalized for 28S rRNA levels.

Cartilage explants = test: Safranin-O staining of glycosaminoglycans in cartilage explants; assay type: cell-based, human; conditions: 1 nM, 14 days; explants from 2 patients; compared to control
Method: Cartilage explants obtained from 2 patients were cultured for 14 days in the presence of BMP-7 (1 nM) or BMP-7 mimicking peptide […] (SEQ ID NO: 13) at 10 nM. Glycosaminoglycans (GAGs), an important component of the extracellular matrix (ECM), were stained with Safranin-O (in red) and other tissues are counterstained with Fast green (in green/blue).

[6] = system: Synovial tissue samples from OA patients; test: PGE2 ELISA, synovial tissue samples; assay type: cell-based, human; conditions: 1 nM, 24 h
Method: Synovial tissue samples from OA patients (n=6) were treated with BMP-7 (1 nM), with peptide […] (SEQ ID NO: 13) at 10 nM or a scrambled irrelevant control peptide (10 nM) for 24 h. PGE2 levels were determined via an ELISA.

OA chondrocytes = conditions: cited from earlier work
OA in rats = conditions: intra-articular administration; cited from earlier work
[7] = system: Osteoarthritis chondrocytes; test: BMP-7 rescue of OA-associated chondrocyte phenotype (FIG. 1); assay type: cell-based
Method: FIG. 1: BMP-7 rescues OA-associated chondrocyte phenotype. Osteoarthritis chondrocytes display a typical phenotype that is characterized by decreased expression of SOX9, COL2A1 and BAPX1/NKX3.2 and an increased expression of COX-2 and IL-6 mRNAs (see left panel).
Functional ALP enzyme activity in cell lysates and PGE2 secretion in the culture medium was also normalized upon BMP-7 treatment of OA chondrocytes (right panel).
Expression of indicated mRNAs was determined by RT-qPCR, relatively to control conditions (normalized for 28S rRNA expression). In graphs, error bars represent mean±SEM, statistical differences were calculated as compared to healthy condition. *=p<0.05.

[8] = system: Cartilage explants from OA patient's knee cartilage; test: PGE2 ELISA, cartilage explants; assay type: cell-based, human; conditions: 1 nM, 14 days
Method: Cartilage explants of 3 mm^2 were taken from OA patient's knee cartilage (n=6) and treated with BMP-7 (1 nM), with peptide […] (SEQ ID NO: 13) at 10 nM or a scrambled irrelevant control peptide (10 nM) for 14 days. Prostaglandin E2 (PGE2) levels, a pro-hypertrophic factor, were determined via an ELISA.

[9] = BMP-7 1 nM, OA chondrocytes, RT-qPCR normalized for 28S rRNA
[10] = BMP-7 treatment of OA chondrocytes

B1: BMP-7: full-length recombinant human bone morphogenetic protein-7; mature polypeptide of 139 amino acids (protein, listed as Homo sapiens)
chain: STGSKQRSQNRSKTPKNQEALRMANVAENSSSDQRQACKKHELYVSFRDLGWQDWIIAPEGYAAYYCEGECAFPLNSYMNATNHAIVQTLVHFINPETVPKPCCAPTQLNAISVLYFDDSSNVILKKYRNMVVRACGCH
adverse events (OA patients): no serious adverse events | PGE2 levels [1]: reduce PGE2 levels | MMP13 expression [2]: decreases | Col10a1 gene expression [3]: downregulation | MMP13 gene expression [3]: downregulation | PGE2 levels [4]: reduce PGE2 levels | COL10A1 (pro-hypertrophic) gene expression [5]: downregulation | COX-2 (pro-hypertrophic) gene expression [5]: downregulation | Col2a1 (pro-chondrogenic) gene expression [5]: upregulation | RUNX2 (pro-hypertrophic) gene expression [5]: downregulation | Safranin-O intensity (glycosaminoglycans) (Cartilage explants): increased Safranin-O intensity | PGE2 levels [6]: reduce PGE2 levels | proteoglycan synthesis (OA chondrocytes): stimulates | OA development and progression (OA in rats): protects against OA development and delays progression of OA | BMP-7 concentration at which OA chondrocyte-phenotype suppressive action is most pronounced [7]: around 1 nM | BAPX1/NKX3.2 mRNA expression [7, 9]: normalizing expression | COL2A1 mRNA expression [7, 9]: normalizing expression | COX-2 mRNA expression [7, 9]: normalizing expression | IL-6 mRNA expression [7, 9]: normalizing expression | SOX9 mRNA expression [7, 9]: normalizing expression | effects on the chondrocyte phenotype ([7]; BMP-7 concentrations higher than 1 nM (eg 10 nM or 100 nM)): opposite and negative effects | Functional ALP enzyme activity in cell lysates [7, 10]: normalized | PGE2 secretion in the culture medium [7, 10]: normalized | PGE2 levels [8]: reduce PGE2 levels
